# B1: N-terminal domain (NTD) of TAR DNA-binding protein 43 (TDP-43) (domain or fragment, UniProt Q13148 1-77, looked up)
# chain: MSEYIRVTEDENDEPIEIPSEDDGTVLLSTVTAQFPGACGLRYRNPVSQCMRGVRLVEGILHAPDAGWGNLVYVVNY
# notes: whole protein has 414 residues; also called TDP-43 NTD; native NTD; source: purified as previously described [24]
# Assays:
# [1] = target: TDP-43 NTD NTD (Homo sapiens) (UniProt Q13148); assay: AUC; conditions: cited from earlier work
# [2] = target: the molecule itself; assay: SEC; 0.5 mg/mL (45 µM) NTD loaded, 0.0% SB3-10, Superdex 200 Increase 10/300 GL, 5 mM sodium phosphate, 50 mM NaCl, 1 mM DTT, pH 7.4, 4 °C; calibration with folded standards
Molecule,Kd [1],stoichiometry N [2]
TDP-43 NTD NTD (from UniProt Q13148),40 µM,–
B1,–,~2

# Source: PMC9268139, “Conversion of the Native N-Terminal Domain of TDP-43 into a Monomeric Alternative Fold with Lower Aggregation Propensity” (Molecules, 2022)
